In article PMC10907715, “Soluble Frizzled-related proteins promote exosome-mediated Wnt re-secretion” (Communications Biology, 2024):

What was measured:
[1] = target: T1, FLAG-GFP-tagged mouse Wnt3a (mouse, UniProt P27467 19-352); experiment: AUC; AUC-FDS (fluorescence detection) of the culture supernatant of fluorescent Wnt-expressing cells co-cultured with sFRP-expressing or parental HEK293 cells; FluoroBrite DMEM with 8% FBS, no detergent; 20 °C, 42,000 rpm; c(s) model of SEDFIT; conditions: partners not purified
T1 construct: Wnt3a, mouse; secreted into the culture supernatant; Ends of the tags are read from the order of the printed name; also called GFP-Wnt3a; FLAG-GFP-Wnt3a; source: L cells stably expressing it, secreted into the culture supernatant (not purified); not shown: GFP, N-terminal, kept
T1 sequence (P27467 19-352): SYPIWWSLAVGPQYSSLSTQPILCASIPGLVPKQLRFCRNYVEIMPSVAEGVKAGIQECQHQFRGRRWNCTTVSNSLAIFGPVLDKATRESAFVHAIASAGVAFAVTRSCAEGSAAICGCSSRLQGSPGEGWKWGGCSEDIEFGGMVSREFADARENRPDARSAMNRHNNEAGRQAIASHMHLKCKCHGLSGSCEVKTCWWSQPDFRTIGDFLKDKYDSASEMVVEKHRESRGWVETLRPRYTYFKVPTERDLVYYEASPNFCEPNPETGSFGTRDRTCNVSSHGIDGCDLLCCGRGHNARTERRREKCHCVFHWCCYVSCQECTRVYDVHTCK

[2] = target: T2, FLAG-mClover-mouse Wnt5a (mouse, UniProt P22725 62-380); experiment: as above; conditions: partners not purified
T2 construct: Wnt5a, mouse; secreted into the culture supernatant; Ends of the tags are read from the order of the printed name; also called mClover-Wnt5a; mClover-tagged Wnt5a; source: HEK293 cells stably expressing it (CMV promoter), secreted into the culture supernatant (not purified); not shown: mClover, N-terminal, kept
T2 sequence (looked up): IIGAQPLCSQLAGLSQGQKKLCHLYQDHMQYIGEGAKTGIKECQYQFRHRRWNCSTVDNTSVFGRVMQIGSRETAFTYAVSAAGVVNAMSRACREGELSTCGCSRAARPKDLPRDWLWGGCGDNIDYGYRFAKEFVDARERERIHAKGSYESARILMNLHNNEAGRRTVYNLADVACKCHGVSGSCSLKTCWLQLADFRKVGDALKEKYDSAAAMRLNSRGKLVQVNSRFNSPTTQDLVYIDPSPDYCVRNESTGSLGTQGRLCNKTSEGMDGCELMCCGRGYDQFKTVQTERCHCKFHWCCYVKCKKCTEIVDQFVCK

stoichiometry N [1]: 1 | stoichiometry N [2]: 1
B1: mouse sFRP2-FLAG (natural protein, UniProt P97299 25-295, looked up)
chain: LFLFGQPDFSYKRSNCKPIPANLQLCHGIEYQNMRLPNLLGHETMKEVLEQAGAWIPLVMKQCHPDTKKFLCSLFAPVCLDDLDETIQPCHSLCVQVKDRCAPVMSAFGFPWPDMLECDRFPQDNDLCIPLASSDHLLPATEEAPKVCEACKTKNEDDNDIMETLCKNDFALKIKVKEITYINRDTKIILETKSKTIYKLNGVSERDLKKSVLWLKDSLQCTCEEMNDINAPYLVMGQKQGGELVITSVKRWQKGQREFKRISRSIRKLQC
notes: sFRP2 (secreted Frizzled-related protein 2), mouse; secreted into the culture supernatant; End of the tag is read from the order of the printed name; also called secreted Frizzled-related protein 2; source: HEK293 cells stably expressing it, secreted into the culture supernatant (not purified)
